Target: T1, Fc protein of human IgG1 antibody (human, UniProt P01857-1 100-330 = IgG part, limits assumed)
T1 construct: domain: Fc; Immobilised on a CM5 chip by amine coupling at about 1400 RU; also called Fc region of an IgG1 antibody
Experiment: SPR Biacore T200, 25 C, Fc of human IgG1 amine-coupled on CM5, peptide as analyte, single cycle kinetics
Experimental: The affinity between each polypeptide and the Fc region of an IgG1 antibody was evaluated by SPR measurement (Biacore T200 (GE Healthcare)). The measurement was performed at 25° C., and HBS-EP+ was used as the running buffer. The Fc protein of human IgG1 antibody, as the ligand, was diluted to 30 g/mL in sodium acetate buffer, pH 4.5 (GE Healthcare) and immobilized on the surface of a CM5 Sensor Chip (GE Healthcare) at approximately 1400 RU using the amine coupling method. The peptides were diluted to 100 nM in HBS-EP+ buffer containing 0.1% DMSO. The measurement was performed using the single cycle kinetics method, with an analyte injection time of 120 seconds, a flow rate of 30 L/min, and a dissociation time of 120 seconds. The obtained sensorgrams were fitted based on the affinity to calculate the dissociation constant (KD).

B1: QET-Z34CM-PA48-Fc3K (peptide)
chain: QETFNMQCQRRFYEALHDPNLNEEQRNARIRSIREECGGAAPAAPAPAAPAAPAPAAPAAPAPAAPAAPAPAAPAAPAPAAPAAPAPGGRGNCAYHKGQIIWCTYH
modifications: C-terminal -NH2 as printed in the 1st table; N-terminal Gln designed to be pyroglutamylated
Kd: 8.98 nM

B2: QET-Fc3K-PA32-Z34CM (peptide)
chain: QETRGNCAYHKGQIIWCTYHGGAAPAAPAPAAPAAPAPAAPAAPAPAAPAAPAPGGFNMQCQRRFYEALHDPNLNEEQRNARIRSIREEC
modifications: C-terminal -NH2 as printed in the 1st table; N-terminal Gln designed to be pyroglutamylated
Kd: 12.7 nM

B3: QET-Fc3K-PA48-Z34CM (peptide)
chain: QETRGNCAYHKGQIIWCTYHGGAAPAAPAPAAPAAPAPAAPAAPAPAAPAAPAPAAPAAPAPAAPAAPAPGGFNMQCQRRFYEALHDPNLNEEQRNARIRSIREEC
modifications: C-terminal -NH2 as printed in the 1st table; N-terminal Gln designed to be pyroglutamylated
Kd: 8.48 nM

B4: QET-Z34CM-PA32-Fc3K (peptide)
chain: QETFNMQCQRRFYEALHDPNLNEEQRNARIRSIREECGGAAPAAPAPAAPAAPAPAAPAAPAPAAPAAPAPGGRGNCAYHKGQIIWCTYH
modifications: C-terminal -NH2 as printed in the 1st table; N-terminal Gln designed to be pyroglutamylated
Kd: 7.91 nM

Reference: US20250101129A1 (AJINOMOTO, published 2025)
